Laboratory results: patent US11384379B2, “Method for producing a protein and disaccharide using a Talaromyces cellulolyticus” (AJINOMOTO CO., INC., priority 2017, dated 2022)

How the values were obtained:
[1] = system: T. cellulolyticus strains F09pyr+ and F09Δgh1-2; test: Halo assay for secretory cellulase by various beta-linked glucose oligosaccharides (CMC minimal medium, Congo Red); format: cell-based, Talaromyces cellulolyticus; conditions: 1 mM in CMC minimal medium, 30° C. for 36 hours
Method: The strains F09pyr+ and F09Δgh1-2 were each grown on the minimal medium containing glucose as the carbon source for 3 days. […] After the culture, a Congo Red solution obtained by mixing 50 mM sodium phosphate buffer (pH 7.0) and 2 mg/ml Congo Red (Nacalai Tesque) in a volume ratio of 10:1 was added to the plate so that the Congo Red solution covered the entire plate, and the plate was left to stand for 30 minutes at a room temperature. Then, the Congo Red solution on the plate was removed, and sodium phosphate buffer (50 mM, pH 7.0) was added to the plate so that the sodium phosphate buffer covered the entire plate. The plate was again left to stand for 30 minutes at a room temperature. Then, the sodium phosphate buffer on the plate was removed, the surface of the plate was dried lightly, and observation of halo was carried out.

[2] = Generation of gentiobiose from cellulosic substrate/glucose by culture supernatant containing BGL3A; format: biochemical; conditions: enzyme solution, no cellulosic substrate added, glucose 0-14.4 wt %, 50° C. for 24 hours
Method: (§1) The strains F09Δbgl3A and F09pyr+ were each inoculated into a 1/2 PDA plate, and cultured at 30° C. for 3 days. […] Sampling was appropriately carried out, cells were removed using a 0.22 μm syringe filter, and the obtained culture supernatant was used as an enzyme solution. Thereby, an enzyme solution derived from the strain F09Δbgl3A not containing BGL3A (hereinafter, also referred to as “-BGL3A”) and an enzyme solution derived from the strain F09pyr+ containing BGL3A (hereinafter, also referred to as “+BGL3A”) were prepared.
The reaction was carried out by placing 10 g of the reaction solution (Table 5) in a 50-ml tube and shaking the tube at 90 rpm at 50° C. for 24 hours.

[3] = Generation of gentiobiose from cellobiose by culture supernatant containing BGL3A; format: biochemical; conditions: enzyme solution, 50° C. for 24 hours
Method: as §1
The two enzyme solutions obtained in Example (5-2) were used to degrade cellobiose, which is a decomposition product of a cellulosic substrate, under conditions of containing a certain concentration of glucose, and the product was analyzed. The reaction was carried out by placing 10 g of the reaction solution (Table 6) in a 50-ml tube and shaking the tube at 90 rpm at 50° C. for 24 hours.

[4] = Reaction of GH1-2s with cellobiose, products by TLC and ion exchange chromatography; format: biochemical; conditions: 30 μg/mL enzyme, 2% cellobiose aqueous solution, 40° C. for 1 to 60 minutes
Method: The purified GH1-2 was added to a 2% cellobiose aqueous solution at a concentration of 30 μg/mL, and a reaction solution after reaction at 40° C. for 1 to 60 minutes was used as a sample solution. The sample solution in 3 μL portions was spotted and developed on a thin layer chromatography plate (Merck) having a silica layer having a thickness of 200 μm, a size of 20×20 cm, and an average pore diameter of 60 angstroms. The composition of the developing solvent was chloroform:methanol:pure water=30:20:5 by volume ratio. An aniline phthalate method for detecting a reducing group was used for color development detection. […]
The reaction mixture obtained by using the wild-type GH1-2 was subject to ion exchange chromatography under the conditions described in Example (2-2), and the reaction product was analyzed, and observation of the hydrolysis product and the transglycosylation product was carried out over time. […]
Similarly, the reaction mixture obtained by using the W363F mutant GH1-2 was subject to ion exchange chromatography under the conditions described in Example (2-2), the reaction product was analyzed, and observation of the hydrolysis product and the transglycosylation product was carried out over time, and the result was compared with that observed when using the wild-type GH1-2 was observed. […]

[5] = Reaction of purified GH1-2 with high-concentration glucose, products by ion-exchange chromatography; format: biochemical; conditions: 1.4 g/L enzyme
Method: The purified GH1-2 was added to a 40% glucose aqueous solution at a concentration of 1.4 g/L, and reaction was carried out at 40° C. for 24 hours, to thereby obtain a sample. This sample was diluted 1000-fold with ion-exchanged water, and subjected to ion-exchange chromatography, to thereby analyze the reaction product. As a result, generation of beta-linked glucose oligosaccharides such as gentiobiose by GH1-2 was confirmed (FIG. 4).
The purified GH1-2 obtained in Example (2-1) was added to a 560 g/L glucose solution at a concentration of 1.4 g/L, to thereby obtain a reaction mixture. The reaction mixture was stirred so as to be uniform, and then left to stand at a room temperature for 52 hours. Then, the reaction mixture was heated at 95° C. for 10 minutes, to thereby obtain a saccharide solution containing gentiobiose. It was confirmed by the ion-exchange chromatography mentioned above that the saccharide solution contains 35.04 g/L gentiobiose.

Q: For `O=C[C@H](O)[C@@H](O)[C@H](O[C@@H]1O[C@H](CO)[C@@H](O)[C@H](O)[C@H]1O)[C@H](O)CO` [cellobiose, reference compound], which “complementation of the decrease in the ability for secretory production of cellulase due to deletion of the gh1-2 gene (halo)” value [1] is on record?
A: scarcely able to complement the decrease in the ability for secretory production of cellulase

B1: BGL3A: major extracellular-secretion type beta-glucosidase of T. cellulolyticus (SEQ ID NO: 38), tested as culture supernatant of strain F09pyr+ (protein, listed as Talaromyces cellulolyticus)
chain: MYSAFLLLLASATPIVSAQSASWSAAYSKATAALSKLSQNDKIGMVTGVGWGKGPCVGNTAAPSGISFPSLCIQDSPLGVRYANPVTAFPAGTNAGMTWDRTLMNQRGAALGAESKGLGVHVQLGPVAGPLGKIAQGGRGWEGFGTDPYLSGVAMIETISGMQSSGTQACAKHYIGNEQELNRESMSSNIDDRTLHELYLWPFADAVRANVASVMCSYNQINGTFSCENEESMTGILKTELGFPGYIMSDWDAQHTTVTSANSGLDMTMPGSDYSDTPSSVLWGQNLANAISSGQVAQSRLDDMVTRILAAWYLVGQDQGFPAVAFNSWTGGQASVNVTSNHNQVARAVARDSIVLLKNTNSTLPLNKPSSIAIIGTDAQTNPSGPNACTDRGCDTGTLAMGWGSGTCQFPYLTDPLTAIKTRAASDGTTITTSISDNGSAGASVAQSAEYAIVFINSDSGEGYITVEGVAGDRNNLDPWHSGNALVQSVAAVNKKTIVVIHSVGPVILETILAQPNVVAVVWAGIPGQESGSALTDILYGSTAPSGKLTYTIAKQASDYGTAVVSGSDNYPEGLFIDYRHFDKSNIEPRYEFGYGLSYTTFGYTNLAIDITVSTGPTTGQIVPGGPSDLFESVGTVTVQVANTGSVAGSEVAQLYIGLPSSAPSSPPKQLRGFDKLSLAAGASGTATFDLTRRDLSYWDVSKQKWVVPSGAFTVYVGASSRDIRLQGTFTPGGSSTTSTITSSKTSTTISTSVTTSSSTTAKTTTTSSTTSSAGPTQTPYGQCGGQGWTGPTVCSSGWTCKVTNQWYSQCLQ
Q: With B1 as the molecule, how does the “generation of gentiobiose from glucose” value [2] read?
A: can generate gentiobiose from glucose in a concentration-dependent manner

Q: And the “generation of gentiobiose from cellobiose” value [3]?
A: can generate gentiobiose from cellobiose

B2: GH1-2: beta-glucosidase of T. cellulolyticus (SEQ ID NO: 23), His-tag at the C-terminus, expressed in E. coli and purified (protein, listed as Talaromyces cellulolyticus)
chain: MGSVTSTNGETPQSKLPADFVWGYATASYQIEGAYDEDGRGPSIWDTFSKTPGKVEDGTNGDVACDSYHRTHEDIAILKQYGAKLYRFSLSWPRIIPLGGRNDPINQKGIDFYSKFIDDLHAAGIEPFVTLYHWDLPDELFKRYGGPLNKDEFVADYANFARIAFQSFGHKVKHWVTFNEPWCSSVLGFNIGKHAPGRTSDRKKNPVGDGVREPWIAGHSLLVAHGTAVDIYRKEFKPTQGGEIGITLNGDWAEPWDPEDPEDIEACTRKLEFAISWFADPIYLGKYPDSVVKQIGDRLPPLTPDEVALIKGSNDFYGMNHYCANYIRHREGEADPDDTAGNLDHLFEDKFGNSIGPETNCEWLRPHPLGFRKLLKWLSDRYGYPKIYVTENGTSIKGENDLPLEELLNDEFRVQYYRDYVGAMADAATFDGVNVKKYMAWSLMDNFEWSEGYQSRFGVTYVDYKDNQKRIPKKSALVIGELFNKYISKE
modifications: C-terminal His-tag
Q: Which “activity on cellobiose (reaction products by TLC)” value [4] does the source give for B2 here?
A: has not only a hydrolysis activity but also has a transglycosylation activity

Q: What about the “activity on glucose (generation of beta-linked glucose oligosaccharides such as gentiobiose)” value ([5]; 40% glucose aqueous solution, 40° C. for 24 hours) of the same molecule?
A: has a transglycosylation activity

Q: What about the “gentiobiose contained in the saccharide solution after reaction” value ([5]; 560 g/L glucose solution, room temperature for 52 hours) of the same molecule?
A: 35.04 g/L
